Data: US7005504 (Genentech, dated 2006)
Where two headings read alike, the source gives them in different places.

Assays:
[1] = target: T1, recombinant human IL-8, (ser-IL-8)72 (human, UniProt P10145 28-99, In some assays the protein was iodinated (125I on tyrosine) or coated on a plate. The letters are unchanged.); test: inhibition of 125I-IL-8 binding to the IL-8 receptors on human neutrophils (Bound/Total against cold ligand in nM)
T1 construct: also called wild type human IL-8; wt IL-8
T1 sequence: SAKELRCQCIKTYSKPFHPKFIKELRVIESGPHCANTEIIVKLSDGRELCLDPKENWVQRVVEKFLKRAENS

[2] = target: T1, recombinant human IL-8, (ser-IL-8)72; test: 125I-IL-8 neutrophil competition; reference not named in the sentence (chimeric F(ab) by Table 4)
[3] = target: T1, recombinant human IL-8, (ser-IL-8)72; test: cell-based or functional assay
rabbit IL-8 [4] = target: T2, rabbit IL-8 (rabbit, UniProt P19874 23-101, limits assumed); test: cell-based or functional assay
T2 sequence (looked up): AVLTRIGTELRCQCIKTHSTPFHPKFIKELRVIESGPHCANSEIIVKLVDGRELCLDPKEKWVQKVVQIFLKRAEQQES

[5] = target: T1, recombinant human IL-8, (ser-IL-8)72; test: 125I-IL-8 neutrophil competition, against F(ab)-1
[6] = target: T1, recombinant human IL-8, (ser-IL-8)72; test: inhibition of 125I-IL-8 binding to the IL-8 receptors on human neutrophils (Bound/Total against cold ligand in nM); remark: listed apart in the source
human monomeric IL-8 = human monomeric IL-8 (human); test: cell-based or functional assay
rhesus IL-8 = target: T3, rhesus IL-8 (rhesus, UniProt P67813 23-101, limits assumed); test: cell-based or functional assay
T3 sequence (looked up): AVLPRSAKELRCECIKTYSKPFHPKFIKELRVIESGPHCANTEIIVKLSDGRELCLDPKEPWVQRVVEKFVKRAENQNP

[7] = target: T1, recombinant human IL-8, (ser-IL-8)72; test: inhibition of 125I-IL-8 binding to IL-8 receptors on human neutrophils; the legend column has no head, the text calls the values of this figure IC50's
rabbit IL-8 [8] = target: T2, rabbit IL-8; test: cell-based or functional assay; remark: listed apart in the source
[9] = target: T1, recombinant human IL-8, (ser-IL-8)72; test: cell-based or functional assay; remark: listed apart in the source

B1: humanized 6G425 F(ab)-1 (Fab, V domains shown)
VH: EVQLVESGGGLVQPGGSLRLSCAASGYSFSSHYMHWVRQAPGKGLEWVGYIDPSNGETTYNQKFKGRFTISRDNSKNTLYLQMNSLRAEDTAVYYCARGDYRYNGDWFFDVWGQGTLVTVSS
VL: DIQMTQSPSSLSASVGDRVTITCRSSQSLVHGIGNTYLHWYQQKPGKAPKLLIYKVSNRFSGVPSRFSGSGSGTDFTLTISSLQPEDFATYYCSQSTHVPLTFGQGTKVEIKR
notes: Fab with human kappa subgroup I light chain and human IgG1 subgroup III heavy chain of phagemid pEMX1; unaltered CDR swap; also called version 1; V1
- IC50 (read off the curve) [1]: ~20 nM
- fold reduction in binding affinity [2]: 5.5 fold

B2: 6G4V11N35A Fab' modified with 40 kD linear PEG-maleimide (Fab, V domains shown)
VH: EVQLVQSGGGLVQPGGSLRLSCAASGYSFSSHYMHWVRQAPGKGLEWVGYIDPSNGETTYNQKFKGRFTLSRDNSKNTAYLQMNSLRAEDTAVYYCARGDYRYNGDWFFDVWGQGTLVTVSS
VL: DIQMTQSPSSLSASVGDRVTITCRSSQSLVHGIGATYLHWYQQKPGKAPKLLIYKVSNRFSGVPSRFSGSGSGTDFTLTISSLQPEDFATYYCSQSTHVPLTFGQGTKVEIKR
modifications: 40 kD linear methoxy-PEG-maleimide on the free cysteine in the hinge region
- IC50, PMN chemotaxis [3]: 3.7 nM

B3: full length 6G4V11N35A IgG1 (antibody, V domains shown, not shown: a dimerising Fc or GST)
VH: EVQLVQSGGGLVQPGGSLRLSCAASGYSFSSHYMHWVRQAPGKGLEWVGYIDPSNGETTYNQKFKGRFTLSRDNSKNTAYLQMNSLRAEDTAVYYCARGDYRYNGDWFFDVWGQGTLVTVSS
VL: DIQMTQSPSSLSASVGDRVTITCRSSQSLVHGIGATYLHWYQQKPGKAPKLLIYKVSNRFSGVPSRFSGSGSGTDFTLTISSLQPEDFATYYCSQSTHVPLTFGQGTKVEIKR
- IC50, neutrophil chemotaxis (rabbit IL-8 [4]): 4 nM
- IC50, neutrophil chemotaxis [3]: 4 nM

B4: humanized 6G425 F(ab)-8 (Fab, V domains shown)
VH: EVQLVESGGGLVQPGGSLRLSCAASGYSFSSHYMHWVKQAPGKGLEWVGYIDPSNGETTYNQKFKGRFTLSRDNSKNTAYLQMNSLRAEDTAVYYCARGDYRYNGDWFFDVWGQGTLVTVSS
VL: DIQMTQSPSSLSASVGDRVTITCRSSQSLVHGIGNTYLHWYQQKPGKAPKLLIYKVSNRFSGVPSRFSGSGSGTDFTLTISSLQPEDFATYYCSQSTHVPLTFGQGTKVEIKR
- IC50, neutrophil chemotaxis [3]: 12 nM

B5: humanized 6G425 F(ab)-2 (Fab, V domains shown)
VH: EVQLVESGGGLVQPGGSLRLSCAASGYSFSSHYMHWVRQAPGKGLEWVGYIDPSNGETTYNQKFKGRATISRDNSKNTLYLQMNSLRAEDTAVYYCARGDYRYNGDWFFDVWGQGTLVTVSS
VL: DIQMTQSPSSLSASVGDRVTITCRSSQSLVHGIGNTYLHWYQQKPGKAPKLLIYKVSNRFSGVPSRFSGSGSGTDFTLTISSLQPEDFATYYCSQSTHVPLTFGQGTKVEIKR
notes: template F(ab)-1; also called version 2
- fold decrease in IL-8 binding [5]: < 2 fold

B6: 6G4V11N35E Fab (Fab, V domains shown)
VH: EVQLVQSGGGLVQPGGSLRLSCAASGYSFSSHYMHWVRQAPGKGLEWVGYIDPSNGETTYNQKFKGRFTLSRDNSKNTAYLQMNSLRAEDTAVYYCARGDYRYNGDWFFDVWGQGTLVTVSS
VL: DIQMTQSPSSLSASVGDRVTITCRSSQSLVHGIGETYLHWYQQKPGKAPKLLIYKVSNRFSGVPSRFSGSGSGTDFTLTISSLQPEDFATYYCSQSTHVPLTFGQGTKVEIKR
- IC50, neutrophil chemotaxis [3]: ~1.2 nM

B7: humanized 6G425 F(ab)-3 (Fab, V domains shown)
VH: EVQLVESGGGLVQPGGSLRLSCAASGYSFSSHYMHWVRQAPGKGLEWVGYIDPSNGETTYNQKFKGRFTISVDNSKNTLYLQMNSLRAEDTAVYYCARGDYRYNGDWFFDVWGQGTLVTVSS
VL: DIQMTQSPSSLSASVGDRVTITCRSSQSLVHGIGNTYLHWYQQKPGKAPKLLIYKVSNRFSGVPSRFSGSGSGTDFTLTISSLQPEDFATYYCSQSTHVPLTFGQGTKVEIKR
notes: template F(ab)-1; also called version 3
- fold decrease in IL-8 binding [5]: < 2 fold

B8: full length 6G4V11N35E IgG1 (antibody, V domains shown, not shown: a dimerising Fc or GST)
VH: EVQLVQSGGGLVQPGGSLRLSCAASGYSFSSHYMHWVRQAPGKGLEWVGYIDPSNGETTYNQKFKGRFTLSRDNSKNTAYLQMNSLRAEDTAVYYCARGDYRYNGDWFFDVWGQGTLVTVSS
VL: DIQMTQSPSSLSASVGDRVTITCRSSQSLVHGIGETYLHWYQQKPGKAPKLLIYKVSNRFSGVPSRFSGSGSGTDFTLTISSLQPEDFATYYCSQSTHVPLTFGQGTKVEIKR
- IC50, neutrophil chemotaxis (rabbit IL-8 [4]): 2 nM
- IC50, neutrophil chemotaxis [3]: 6 nM

B9: 6G4V11N35A Fab (Fab, V domains shown)
VH: EVQLVQSGGGLVQPGGSLRLSCAASGYSFSSHYMHWVRQAPGKGLEWVGYIDPSNGETTYNQKFKGRFTLSRDNSKNTAYLQMNSLRAEDTAVYYCARGDYRYNGDWFFDVWGQGTLVTVSS
VL: DIQMTQSPSSLSASVGDRVTITCRSSQSLVHGIGATYLHWYQQKPGKAPKLLIYKVSNRFSGVPSRFSGSGSGTDFTLTISSLQPEDFATYYCSQSTHVPLTFGQGTKVEIKR
notes: also called 6G4.2.5V11N35A Fab; Fab control
- IC50 (read off the curve) [6]: ~1 nM
- average IC50, neutrophil chemotaxis (rabbit IL-8 [4]): 5 nM
- average IC50, neutrophil chemotaxis (human monomeric IL-8): 1 nM
- IC50, PMN chemotaxis [3]: 0.8 nM
- average IC50, neutrophil chemotaxis [3]: 2.7 nM

B10: humanized 6G425 F(ab)-9 (humanized 6G4V11 Fab) (Fab, V domains shown)
VH: EVQLVQSGGGLVQPGGSLRLSCAASGYSFSSHYMHWVRQAPGKGLEWVGYIDPSNGETTYNQKFKGRFTLSRDNSKNTAYLQMNSLRAEDTAVYYCARGDYRYNGDWFFDVWGQGTLVTVSS
VL: DIQMTQSPSSLSASVGDRVTITCRSSQSLVHGIGNTYLHWYQQKPGKAPKLLIYKVSNRFSGVPSRFSGSGSGTDFTLTISSLQPEDFATYYCSQSTHVPLTFGQGTKVEIKR
- IC50, neutrophil chemotaxis (human monomeric IL-8): ~15 nM
- IC50, neutrophil chemotaxis (rhesus IL-8): ~22 nM

B11: 6G4V11N35A F(ab')2 leucine zipper (other)
light: DIQMTQSPSSLSASVGDRVTITCRSSQSLVHGIGATYLHWYQQKPGKAPKLLIYKVSNRFSGVPSRFSGSGSGTDFTLTISSLQPEDFATYYCSQSTHVPLTFGQGTKVEIKRTVAAPSVFIFPPSDEQLKSGTASVVCLLNNFYPREAKVQWKVDNALQSGNSQESVTEQDSKDSTYSLSSTLTLSKADYEKHKVYACEVTHQGLSSPVTKSFNRGEC
heavy: not shown
- average IC50, neutrophil chemotaxis (rabbit IL-8 [4]): 4 nM
- average IC50, neutrophil chemotaxis (human monomeric IL-8): 1 nM
- average IC50, neutrophil chemotaxis [3]: 1.5 nM

B12: 6G4V11N35A F(ab')2 modified with a single 40 kD branched PEG molecule (other)
light: DIQMTQSPSSLSASVGDRVTITCRSSQSLVHGIGATYLHWYQQKPGKAPKLLIYKVSNRFSGVPSRFSGSGSGTDFTLTISSLQPEDFATYYCSQSTHVPLTFGQGTKVEIKRTVAAPSVFIFPPSDEQLKSGTASVVCLLNNFYPREAKVQWKVDNALQSGNSQESVTEQDSKDSTYSLSSTLTLSKADYEKHKVYACEVTHQGLSSPVTKSFNRGEC
heavy: not shown
modifications: may carry PEG on a lysine or the N-terminus; site not defined
notes: one 40 kD branched PEG-succinimide (PEG2-NHS-40 KDa) per F(ab')2, on a primary amine; also called single 40 kD branched PEG-modified F(ab')2; branched(1)40 KDa-(N)-(Fab')2
- IC50 [7]: 0.38 nM

B13: 6G4V11N35A F(ab')2 modified with a single 20 kD linear PEG molecule (other)
light: DIQMTQSPSSLSASVGDRVTITCRSSQSLVHGIGATYLHWYQQKPGKAPKLLIYKVSNRFSGVPSRFSGSGSGTDFTLTISSLQPEDFATYYCSQSTHVPLTFGQGTKVEIKRTVAAPSVFIFPPSDEQLKSGTASVVCLLNNFYPREAKVQWKVDNALQSGNSQESVTEQDSKDSTYSLSSTLTLSKADYEKHKVYACEVTHQGLSSPVTKSFNRGEC
heavy: not shown
modifications: may carry PEG on a lysine or the N-terminus; site not defined
notes: one 20 kD linear PEG-succinimide (M-SPA-20000) per F(ab')2, on a primary amine; also called single 20 kD linear PEG-modified F(ab')2; linear(1)20 KDa-(N)-(Fab')2
- IC50 [7]: 0.296 nM

B14: chimeric 6G4.2.5 Fab (Fab, V domains shown)
VH: EIQLQQSGPELMKPGASVKISCKASGYSFSSHYMHWVKQSHGKSLEWIGYIDPSNGETTYNQKFKGKATLTVDTSSSTANVHLSSLTSDDSAVYFCARGDYRYNGDWFFDVWGAGTTVTVSS
VL: DIVMTQTPLSLPVSLGDQASISCRSSQSLVHGIGNTYLHWYLQKPGQSPKLLIYKVSNRFSGVPDRFSGSGSGTDFTLRISRVEAEDLGLYFCSQSTHVPLTFGAGTKLELKR
- IC50 (4 parameter fit) of the inhibition of rabbit IL-8 (100 nM) stimulated elastase release from human neutrophils (absorbance 405 nM) (rabbit IL-8 [8]): 1.04 molar ratio Fab:rIL-8 (x axis; 100 nM rIL-8)
- IC50 (4 parameter fit) of the inhibition of human IL-8 (100 nM) stimulated elastase release from human neutrophils [9]: 0.635 molar ratio Fab:IL-8 (x axis; 100 nM IL-8)

B15: chimeric 5.12.14 Fab (Fab, V domains shown)
VH: EVQLVESGGGLVPPGGSLKLSCAASGFIFSSYGMSWVRQTPGKSLELVATINNNGDSTYYPDSVKGRFTISRDNAKNTLYLQMSSLKSEDTAMFYCARALISSATWFGYWGQGTLVTVSA
VL: DIVMTQSQKFMSTSVGDRVSVTCKASQNVGTNVAWYQQKPGQSPKALIYSSSYRYSGVPDRFTGSGSGTDFTLTISHVQSEDLADYFCQQYNIYPLTFGPGTKLELRR
- IC50 (4 parameter fit) of the inhibition of human IL-8 (100 nM) stimulated elastase release from human neutrophils [9]: 0.643 molar ratio Fab:IL-8 (x axis; 100 nM IL-8)
